Assay results published in US10654896B2, “FoxP3-binding peptides and uses thereof” (FUNDACIÓN PARA LA INVESTIGACIÓN MÉDICA APLICADA, priority 2016, dated 2020).
Where a SMILES comes first, the peptide text is derived from it. Where no end group is shown, it is not given here. [ ]: non-standard residue; d: D form.

The molecules below were run against T1, human FOXP3 (FOXP3-6His) (Homo sapiens, UniProt Q9BZS1) (assay: Peptide binding to FOXP3 by surface plasmon resonance (SPR)). Settings: not given.
T1 construct: 6xHis (C); made in house; host or cells: E. coli BL21 (DE3)
T1 sequence (Q9BZS1 1-431): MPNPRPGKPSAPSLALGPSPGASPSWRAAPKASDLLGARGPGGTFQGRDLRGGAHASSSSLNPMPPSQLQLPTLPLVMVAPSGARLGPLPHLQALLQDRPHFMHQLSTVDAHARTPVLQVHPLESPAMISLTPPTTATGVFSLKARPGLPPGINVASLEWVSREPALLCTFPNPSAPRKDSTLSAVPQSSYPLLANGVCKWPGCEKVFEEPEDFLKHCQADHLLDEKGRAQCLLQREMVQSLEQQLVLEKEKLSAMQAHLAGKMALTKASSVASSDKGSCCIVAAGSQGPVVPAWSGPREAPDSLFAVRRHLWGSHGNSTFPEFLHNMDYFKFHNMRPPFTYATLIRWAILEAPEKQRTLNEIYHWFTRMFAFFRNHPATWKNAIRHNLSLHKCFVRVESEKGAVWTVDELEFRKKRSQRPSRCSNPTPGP
Description: Plasmid pET20b FOXP3-His was generated to produce the human FOXP3 tagged with 6 histidines at the C terminus of the protein. Briefly, plasmid pDEST15-FOXP3 (provided by Dr. Casal, Madrid, Spain) was used as template to amplify FOXP3 by PCR using the primers Upper FOXP3 Ndel catatgcccaaccccaggc (SEQ ID NO: 55) and Lower FOXP3 […] (SEQ ID NO: 56). The resulting fragment was subcloned in pET20b at Ndel and NotI sites. pET45b His-Runx1 was obtained by PCR of activated human CD4 T cells obtained from healthy volunteers (after the signature of an informed consent) using the primers Upper Runx1 atgcgtatccccgtagatg (SEQ ID NO: 57) and Lower Runx1 […] (SEQ ID NO: 58) and the fragment was cloned in pcDNA3.1. Then, pET45b and pcDNA3.1-Runx1 were digested with BamHI and NotI and ligated to obtain pET45b-Runx1. Plasmids were used to transform BL21 cells (DE3; Novagen, Schwalbach, Germany) for the expression of the recombinant protein. The transformed BL21 cells were grown in LB medium at 37° C. (1 liter of final culture medium) (with ampicilin 0.1 mg/ml). Once the OD of the culture was between 0.5 and 1.0, IPTG (0.4 mM, final concentration) was added. Bacteria were then cultured overnight in agitation and centrifuged for 10 min at 8000 rpm. Cell pellet was then resuspended in 4 ml Tris-HCl 0.1 M and frozen at −80° C. Cell pellet was then thawed and incubated with lisozyme (25 KU) and a protease inhibitor cocktail for 15 min at 30° C. before cell lysis induced with a French-press. The resultant pool was then centrifuged during 20 min at 11.000 rpm). The recombinant protein was purified from the soluble fraction of French-press cell extracts by affinity chromatography (Histrap, Pharmacia) following manufacturer's instructions and using an FPLC platform (AKTA, Pharmacia). Plasmid pDEST15-FOXP3 encoding the fusion protein GST-FOXP3 (GST fused to the isoform A from human FOXP3 gene), was transformed into BL21 cells for the expression of the recombinant protein. GST-FOXP3 protein was purified from the soluble fraction of cell extracts obtained, as described above, by affinity chromatography (GSTrap; Amersham, Piscataway, N.J.) using a fast protein liquid chromatography platform (AKTA; Amersham) following manufacturer's instructions. The eluted proteins were desalted using Hitrap desalting columns (Pharmacia) and analyzed by SDS-PAGE using Coomassie blue (Bio-Safe Coomassie reagent; Bio-Rad, Hercules, Calif.) and by Western blot.
Screening of peptide binding to FOXP3 was performed by surface plasmon resonance (SPR) using ProteOn XPR36 (Bio-Rad, Hercules Calif., USA) optical biosensor. Recombinant protein FOXP3-6His was produced and purified from E. coli as disclosed in previous section and was immobilized covalently onto a GLM sensor chip (176-5012, Bio-Rad) using sulfo-NHS and EDC (Bio-Rad) coupling reagents and the manufacturer's instructions. After protein immobilization, chip surface was treated with ethanolamine to deactivate the excess of reactive esters.
Individual solutions of the peptides to be tested (1-20 μM) were injected by triplicate in running buffer (Phosphate buffered saline, 0.005% (v/v) Tween 20, pH 7.4) at a flow of 30 μl/min. The interspot signal (obtained in the chip surface not immobilized with protein) was used as reference. The results are summarized in Table 6 below as the ratio Peptide of the invention/p60.

Molecule | increase in the binding to FoxP3 with respect to p60 (SEQ ID NO: 1)
RAFQAFRKMWPFFAM [SEQ ID NO: 42] (H-RAFQAFRKMWPFFAM-OH) | about 400%
RDFQSFRKMWPFFAM (cyclo(RDFQSFRKMWPFFAM); also: R1 and R2 form a linker birradical which is -C(=O)-) [SEQ ID NO: 49, head-to-tail cyclic peptide] | about 500%

Same assay, conditions: peptides 1-20 μM; ratio to p60 (SEQ ID NO: 1)

Molecule | Binding to Foxp3 Ratio binding Peptide/p60 (fold change)
7 (RSFQSFRKMWPFFAM) [compound 7] | 1.4 fold change
8 (RYFQSFRKMWPFFAM) [compound 8] | 1.4 fold change
11 (RNFQSFRKMWPFFAM) [compound 11] | 1.4 fold change
12 (RKFQSFRKMWPFFAM) [compound 12] | 2.2 fold change
16 (RDWQSFRKMWPFFAM) [compound 16] | 3.7 fold change
17 (RDYQSFRKMWPFFAM) [compound 17] | 3.3 fold change
18 (RDLQSFRKMWPFFAM) [compound 18] | 1.9 fold change
20 (RDFQRFRKMWPFFAM) [compound 20] | 3.7 fold change
21 (RDFQNFRKMWPFFAM) [compound 21] | 3.2 fold change
22 (RDFQWFRKMWPFFAM) [compound 22] | 2.4 fold change
23 (RDFQEFRKMWPFFAM) [compound 23] | 1.3 fold change
24 (RDFQYFRKMWPFFAM) [compound 24] | 4.6 fold change
25 (RDFQKFRKMWPFFAM) [compound 25] | 4.0 fold change
28 (RDFQSFRHMWPFFAM) [compound 28] | 2.6 fold change
29 (RDFQSFRRMWPFFAM) [compound 29] | 1.4 fold change
CSCC[C@H](NC(=O)[C@H](C)NC(=O)[C@H](Cc1ccccc1)NC(=O)[C@H](Cc1ccccc1)NC(=O)[C@@H]1CCCN1C(=O)[C@H](Cc1c[nH]c2ccccc12)NC(=O)[C@H](CCSC)NC(=O)[C@H](CCCCN)NC(=O)[C@H](CCCNC(=N)N)NC(=O)[C@H](Cc1ccccc1)NC(=O)[C@H](CO)NC(=O)[C@H](CCC(N)=O)NC(=O)[C@H](Cc1ccccc1)NC(=O)[C@@H](CC(=O)O)NC(=O)[C@H](CCCNC(=N)N)NC(=O)CNC(C)=O)C(N)=O [compound 4] (Ac-GR[dD]FQSFRKMWPFFAM-NH2; C-terminus assumed) | 4.2 fold change
Ac-GRAFQSFRKMWPFFAM-NH2 (C-terminus assumed) [compound 13] | 3.2 fold change

Next, values leading:

Binding to Foxp3 Ratio binding Peptide/p60 (fold change) | Molecule
3.3 fold change | 6 (R[dA]FQSFRKMWPFFAM) [compound 6]
2.8 fold change | 31 (RDFQSFRKMWRFFAM) [compound 31]
1.4 fold change | 32 (RDFQSFRKMWNFFAM) [compound 32]
1.3 fold change | 33 (RDFQSFRKMWVFFAM) [compound 33]
1.3 fold change | 35 (RDFQSFRKMWYFFAM) [compound 35]
4.1 fold change | 37 (RDFQSFRKMWKFFAM) [compound 37]
1.1 fold change | 38 (RDFQSFRKMWAFFA[dM]-NH2; not fully specified (N-terminus)) [compound 38]
3.3 fold change | 39 (RDFQ[dA]FRKMWPFFAM-NH2; not fully specified (N-terminus)) [compound 39]
2.2 fold change | 40 (RDFQSFRKMW[dA]FFAM-NH2; not fully specified (N-terminus)) [compound 40]
4.1 fold change | 42 (H-RAFQAFRKMWPFFAM-OH) [compound 42]
4.9 fold change | 43 (R[dA]FQ[dA]FRKMWPFFAM-NH2; not fully specified (N-terminus)) [compound 43]
3.0 fold change | 44 (RAFQSFRKMWAFFAM-NH2; not fully specified (N-terminus)) [compound 44]
5.0 fold change | 49 (cyclo(RDFQSFRKMWPFFAM); also: R1 and R2 form a linker birradical which is -C(=O)-) [compound 49]
